Data on ten molecules can be found in patent JP2014043405A (dated 2014).

The labels stand for the following.
T1: ヒトFcγRIIb (human, UniProt P31994 43-217)
T1 construct: extracellular domain; for the crystals it was expressed with kifunensine and its N-glycans trimmed with Endo F1; also called FcγRIIb細胞外領域
T1 sequence (looked up): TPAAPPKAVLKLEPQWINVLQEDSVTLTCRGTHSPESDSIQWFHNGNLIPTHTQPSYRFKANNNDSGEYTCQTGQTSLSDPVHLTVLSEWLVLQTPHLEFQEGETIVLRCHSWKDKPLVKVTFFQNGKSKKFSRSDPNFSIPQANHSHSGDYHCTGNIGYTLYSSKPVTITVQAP

B1: IL6R-BP450/IL6R-L (antibody, human IgG1)
heavy: QVQLQESGPGLVKPSETLSLTCAVSGHSISHDHAWSWVRQPPGEGLEWIGFISYSGITNYNPSLQGRVTISRDNSKNTLYLQMNSLRAEDTAVYYCARSLARTTAMDYWGEGTLVTVSSASTKGPSVFPLAPSSKSTSGGTAALGCLVKDYFPEPVTVSWNSGALTSGVHTFPAVLQSSGLYSLSSVVTVPSSSLGTQTYICNVNHKPSNTKVDKKVEPKSCDKTHTCPPCPAPDLLGDDSVFLFPPKPKDTLMISRTPEVTCVVVDVAEEDGEVKFNWYVDGVEVHNAKTKPREEQYNSTYRVVSVLTVLHQDWLNGKEYKCKVSNKALPRPIEKTISKAKGQPREPQVYTLPPSRDELTKNQVSLTCLVKGFYPSDIAVEWESNGQPENNYKTTPFVLDSDGSFFLYSKLTVDKSRWQQGNVFSCSVMHEALHNHYTQESLSLSP
light: DIQMTQSPSSLSASVGDRVTITCRASQDISSYLNWYQQKPGKAPKLLIYYTSRLHSGVPSRFSGSGSGTDFTFTISSLQPEDIATYYCQQGNTLPYTFGQGTKVEIK
B2: IL6R-BP458/IL6R-L (antibody, human IgG1)
heavy: QVQLQESGPGLVKPSETLSLTCAVSGHSISHDHAWSWVRQPPGEGLEWIGFISYSGITNYNPSLQGRVTISRDNSKNTLYLQMNSLRAEDTAVYYCARSLARTTAMDYWGEGTLVTVSSASTKGPSVFPLAPSSKSTSGGTAALGCLVKDYFPEPVTVSWNSGALTSGVHTFPAVLQSSGLYSLSSVVTVPSSSLGTQTYICNVNHKPSNTKVDKKVEPKSCDKTHTCPPCPAPDLLGDDSVFLFPPKPKDTLMISRTPEVTCVVVDVAEEDGEVKFNWYVDGVEVHNAKTKPREEQYNSTYRVVSVLTVLHQDWLNGKEYKCKVSNKALPRPIEKTISKAKGQPREPQVYTLPPSRDELTKNQVSLTCLVKGFYPSDIAVEWESNGQPENNYKTTPQVLDSDGSFFLYSKLTVDKSRWQQGNVFSCSVMHEALHNHYTQESLSLSP
light: DIQMTQSPSSLSASVGDRVTITCRASQDISSYLNWYQQKPGKAPKLLIYYTSRLHSGVPSRFSGSGSGTDFTFTISSLQPEDIATYYCQQGNTLPYTFGQGTKVEIK
B3: IL6R-BP453/IL6R-L (antibody, human IgG1)
heavy: QVQLQESGPGLVKPSETLSLTCAVSGHSISHDHAWSWVRQPPGEGLEWIGFISYSGITNYNPSLQGRVTISRDNSKNTLYLQMNSLRAEDTAVYYCARSLARTTAMDYWGEGTLVTVSSASTKGPSVFPLAPSSKSTSGGTAALGCLVKDYFPEPVTVSWNSGALTSGVHTFPAVLQSSGLYSLSSVVTVPSSSLGTQTYICNVNHKPSNTKVDKKVEPKSCDKTHTCPPCPAPDLLGDDSVFLFPPKPKDTLMISRTPEVTCVVVDVAEEDGEVKFNWYVDGVEVHNAKTKPREEQYNSTYRVVSVLTVLHQDWLNGKEYKCKVSNKALPRPIEKTISKAKGQPREPQVYTLPPSRDELTKNQVSLTCLVKGFYPSDIAVEWESNGQPENNYKTTPIVLDSDGSFFLYSKLTVDKSRWQQGNVFSCSVMHEALHNHYTQESLSLSP
light: DIQMTQSPSSLSASVGDRVTITCRASQDISSYLNWYQQKPGKAPKLLIYYTSRLHSGVPSRFSGSGSGTDFTFTISSLQPEDIATYYCQQGNTLPYTFGQGTKVEIK
B4: IL6R-BP455/IL6R-L (antibody, human IgG1)
heavy: QVQLQESGPGLVKPSETLSLTCAVSGHSISHDHAWSWVRQPPGEGLEWIGFISYSGITNYNPSLQGRVTISRDNSKNTLYLQMNSLRAEDTAVYYCARSLARTTAMDYWGEGTLVTVSSASTKGPSVFPLAPSSKSTSGGTAALGCLVKDYFPEPVTVSWNSGALTSGVHTFPAVLQSSGLYSLSSVVTVPSSSLGTQTYICNVNHKPSNTKVDKKVEPKSCDKTHTCPPCPAPDLLGDDSVFLFPPKPKDTLMISRTPEVTCVVVDVAEEDGEVKFNWYVDGVEVHNAKTKPREEQYNSTYRVVSVLTVLHQDWLNGKEYKCKVSNKALPRPIEKTISKAKGQPREPQVYTLPPSRDELTKNQVSLTCLVKGFYPSDIAVEWESNGQPENNYKTTPLVLDSDGSFFLYSKLTVDKSRWQQGNVFSCSVMHEALHNHYTQESLSLSP
light: DIQMTQSPSSLSASVGDRVTITCRASQDISSYLNWYQQKPGKAPKLLIYYTSRLHSGVPSRFSGSGSGTDFTFTISSLQPEDIATYYCQQGNTLPYTFGQGTKVEIK
B5: IL6R-BP454/IL6R-L (antibody, human IgG1)
heavy: QVQLQESGPGLVKPSETLSLTCAVSGHSISHDHAWSWVRQPPGEGLEWIGFISYSGITNYNPSLQGRVTISRDNSKNTLYLQMNSLRAEDTAVYYCARSLARTTAMDYWGEGTLVTVSSASTKGPSVFPLAPSSKSTSGGTAALGCLVKDYFPEPVTVSWNSGALTSGVHTFPAVLQSSGLYSLSSVVTVPSSSLGTQTYICNVNHKPSNTKVDKKVEPKSCDKTHTCPPCPAPDLLGDDSVFLFPPKPKDTLMISRTPEVTCVVVDVAEEDGEVKFNWYVDGVEVHNAKTKPREEQYNSTYRVVSVLTVLHQDWLNGKEYKCKVSNKALPRPIEKTISKAKGQPREPQVYTLPPSRDELTKNQVSLTCLVKGFYPSDIAVEWESNGQPENNYKTTPKVLDSDGSFFLYSKLTVDKSRWQQGNVFSCSVMHEALHNHYTQESLSLSP
light: DIQMTQSPSSLSASVGDRVTITCRASQDISSYLNWYQQKPGKAPKLLIYYTSRLHSGVPSRFSGSGSGTDFTFTISSLQPEDIATYYCQQGNTLPYTFGQGTKVEIK
B6: IL6R-BP464/IL6R-L (antibody, human IgG1)
heavy: QVQLQESGPGLVKPSETLSLTCAVSGHSISHDHAWSWVRQPPGEGLEWIGFISYSGITNYNPSLQGRVTISRDNSKNTLYLQMNSLRAEDTAVYYCARSLARTTAMDYWGEGTLVTVSSASTKGPSVFPLAPSSKSTSGGTAALGCLVKDYFPEPVTVSWNSGALTSGVHTFPAVLQSSGLYSLSSVVTVPSSSLGTQTYICNVNHKPSNTKVDKKVEPKSCDKTHTCPPCPAPDLLGDDSVFLFPPKPKDTLMISRTPEVTCVVVDVAEEDGEVKFNWYVDGVEVHNAKTKPREEQYNSTYRVVSVLTVLHQDWLNGKEYKCKVSNKALPRPIEKTISKAKGQPREPQVYTLPPSRDELTKNQVSLTCLVKGFYPSDIAVEWESNGQPENNYKTTPYVLDSDGSFFLYSKLTVDKSRWQQGNVFSCSVMHEALHNHYTQESLSLSP
light: DIQMTQSPSSLSASVGDRVTITCRASQDISSYLNWYQQKPGKAPKLLIYYTSRLHSGVPSRFSGSGSGTDFTFTISSLQPEDIATYYCQQGNTLPYTFGQGTKVEIK
B7: IL6R-BP459/IL6R-L (antibody, human IgG1)
heavy: QVQLQESGPGLVKPSETLSLTCAVSGHSISHDHAWSWVRQPPGEGLEWIGFISYSGITNYNPSLQGRVTISRDNSKNTLYLQMNSLRAEDTAVYYCARSLARTTAMDYWGEGTLVTVSSASTKGPSVFPLAPSSKSTSGGTAALGCLVKDYFPEPVTVSWNSGALTSGVHTFPAVLQSSGLYSLSSVVTVPSSSLGTQTYICNVNHKPSNTKVDKKVEPKSCDKTHTCPPCPAPDLLGDDSVFLFPPKPKDTLMISRTPEVTCVVVDVAEEDGEVKFNWYVDGVEVHNAKTKPREEQYNSTYRVVSVLTVLHQDWLNGKEYKCKVSNKALPRPIEKTISKAKGQPREPQVYTLPPSRDELTKNQVSLTCLVKGFYPSDIAVEWESNGQPENNYKTTPRVLDSDGSFFLYSKLTVDKSRWQQGNVFSCSVMHEALHNHYTQESLSLSP
light: DIQMTQSPSSLSASVGDRVTITCRASQDISSYLNWYQQKPGKAPKLLIYYTSRLHSGVPSRFSGSGSGTDFTFTISSLQPEDIATYYCQQGNTLPYTFGQGTKVEIK
B8: IL6R-BP456/IL6R-L (antibody, human IgG1)
heavy: QVQLQESGPGLVKPSETLSLTCAVSGHSISHDHAWSWVRQPPGEGLEWIGFISYSGITNYNPSLQGRVTISRDNSKNTLYLQMNSLRAEDTAVYYCARSLARTTAMDYWGEGTLVTVSSASTKGPSVFPLAPSSKSTSGGTAALGCLVKDYFPEPVTVSWNSGALTSGVHTFPAVLQSSGLYSLSSVVTVPSSSLGTQTYICNVNHKPSNTKVDKKVEPKSCDKTHTCPPCPAPDLLGDDSVFLFPPKPKDTLMISRTPEVTCVVVDVAEEDGEVKFNWYVDGVEVHNAKTKPREEQYNSTYRVVSVLTVLHQDWLNGKEYKCKVSNKALPRPIEKTISKAKGQPREPQVYTLPPSRDELTKNQVSLTCLVKGFYPSDIAVEWESNGQPENNYKTTPMVLDSDGSFFLYSKLTVDKSRWQQGNVFSCSVMHEALHNHYTQESLSLSP
light: DIQMTQSPSSLSASVGDRVTITCRASQDISSYLNWYQQKPGKAPKLLIYYTSRLHSGVPSRFSGSGSGTDFTFTISSLQPEDIATYYCQQGNTLPYTFGQGTKVEIK
B9: IL6R-BP479/IL6R-L (antibody)
chain 1: QVQLQESGPGLVKPSETLSLTCAVSGHSISHDHAWSWVRQPPGEGLEWIGFISYSGITNYNPSLQGRVTISRDNSKNTLYLQMNSLRAEDTAVYYCARSLARTTAMDYWGEGTLVTVSSASTKGPSVFPLAPSSKSTSGGTAALGCLVKDYFPEPVTVSWNSGALTSGVHTFPAVLQSSGLYSLSSVVTVPSSSLGTQTYICNVNHKPSNTKVDKKVEPKSCDKTHTCPPCPAPDLLGDDSVFLFPPKPKDTLMISRTPEVTCVVIDLAEEDGEVKFNWYVDGVEVHNAKTKPREEQYNSTYRVVSVLTVLHQDWLNGKEYKCKVSNKALPAPIEKTISKAKGQPREPQVYTLPPSRDELTKNQVSLTCLVKGFYPSDIAVEWESNGQPENNYKTTPPVLDSDGSFFLYSKLTVDKSRWQQGNVFSCSVMHEALHNHYTQESLSLSP
chain 2: not shown
B10: IL6R-BP493/IL6R-L (antibody)
chain 1: QVQLQESGPGLVKPSETLSLTCAVSGHSISHDHAWSWVRQPPGEGLEWIGFISYSGITNYNPSLQGRVTISRDNSKNTLYLQMNSLRAEDTAVYYCARSLARTTAMDYWGEGTLVTVSSASTKGPSVFPLAPSSKSTSGGTAALGCLVKDYFPEPVTVSWNSGALTSGVHTFPAVLQSSGLYSLSSVVTVPSSSLGTQTYICNVNHKPSNTKVDKKVEPKSCDKTHTCPPCPAPELLGGDSVFLFPPKPKDTLMISRTPEVTCVVIDVAEEDGEVKFNWYVDGVEVHNAKTKPREEQDNSTYRVVSVLTVLHQDWLNGKEYKCKVSNKALPAPIEKTISKAKGQPREPQVYTLPPSRDELTKNQVSLTCLVKGFYPSDIAVEWESNGQPENNYKTTPPVLDSDGSFFLYSKLTVDKSRWQQGNVFSCSVMHEALHNHYTQESLSLSP
chain 2: not shown

The target of the first experiment is T1, ヒトFcγRIIb. Description: SPR, KD.
With B1, the binding result was “binds”.

As to B2, the binding result is reported as “binds”.

Consider B3, for which the binding result was “binds”.

Take B4: the binding result is reported as “binds”.

With B5, the binding result is “binds”.

Regarding B6, the binding result was “binds”.

With B7, the binding result is listed as “binds”.

B8: the binding result was “binds”.

The target of a further experiment is T1, ヒトFcγRIIb. Description: SPR; KD for FcγRIIaR divided by KD for FcγRIIb. In general terms: Surface plasmon resonance follows binding to a sensor surface in real time, without labels.
For B9, the “KD (IIaR)/KD (IIb)” value was 16.1 ratio.

With B10, the “KD (IIaR)/KD (IIb)” value is 52.1 ratio.
